Source: article PMC4264537 (Molecular microbiology, 2014)

Target: the molecule itself
Test: cross-linking

B1: CstR (CsoR-like sulfurtransferase repressor), wild type, Staphylococcus aureus strain Newman (natural protein, UniProt Q9XBC0 1-86, looked up)
chain: MNYDKKMINRINRIQGQLNGIIKMMEEGKDCKDVITQISASKSSLQRLMGIIISENLIECVKVAADDEESSQELINEAVNLLVKSK
With B1 the “stoichiometry N” value was 2.
